{
  "source": "patent US6410255B1",
  "about": "“Optical probes and assays” (priority 1999, dated 2002)",
  "format_in_all_cases": "biochemical",
  "key": {"protein kinase A": {"target": "protein kinase A (Homo sapiens, UniProt P17612)", "experiment": "Protein kinase A inhibitor assay with optical probe", "details": "inhibitor 10 μM, ATP 10 μM", "description": "[…] After one hour incubation at 30 C, chymotrypsin to a final concentration of 0.8 nM was added and the 460/530 ratio was determined after one hour, as described above (Example 6)."}, "PTP-B": {"target": "PTP-B", "experiment": "Inhibition of protein tyrosine phosphatase with phosphorylated Src-2 probe", "details": "read-out: apparent IC50", "description": "(§1) Optical probes were first phosphorylated to completion as described above, and samples of phosphorylated optical probe, at a final concentration of 500 nM, were incubated with various concentrations of protein tyrosine phosphatase-B (PTP-B) agarose (Upstate Biotechnology) for 20 minutes at 30 C in 0.1×PBS. At the required time interval, PTP-B-agarose was removed by a brief microfuige spin prior to transfer to 96-well Cytofluor plates for fluorescence measurements, after addition of chymotrypsin (100 nM), as described in Example 1."}, "caspase-3": {"target": "T1, caspase-3 (Homo sapiens, UniProt P42574)", "T1 construct": "purchased Upstate Biotechnology", "T1 sequence (P42574 29-175 limits assumed)": "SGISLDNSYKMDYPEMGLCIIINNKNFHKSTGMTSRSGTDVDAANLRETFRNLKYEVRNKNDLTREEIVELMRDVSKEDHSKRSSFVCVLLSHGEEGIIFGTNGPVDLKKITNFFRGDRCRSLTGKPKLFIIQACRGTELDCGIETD", "T1 sequence (P42574 176-277 limits assumed)": "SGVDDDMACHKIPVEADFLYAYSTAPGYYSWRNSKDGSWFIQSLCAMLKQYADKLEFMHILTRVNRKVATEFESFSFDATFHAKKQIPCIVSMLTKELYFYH", "experiment": "Caspase-3 cleavage of optical probe with or without ERK2 phosphorylation", "details": "30 minutes exposure to caspase-3", "description": "To determine how phosphorylation on serine in the optical probe (SEQ. ID. NO: 24) effected the rate of caspase-3 cleavage, samples of phosphorylated and control (non-phosphorylated) optical probes were treated with the protease caspase-3. Phosphorylated samples of the optical probe (70 pmol) were prepared by 8 hour to overnight incubation with ERK2 kinase (Biomol). Reactions were typically performed in 10 μl using 200-500 μM ATP and 50-200 ng ERK2 in a buffer consisting of 50 mM HEPES, pH 7.5, 10 mM MgCl2, 1 mM EGTA, and 1 mM DTT at 30° C. Mock kinase reactions were performed for preparation of control (non-phosphorylated) optical probe as above, except ATP was omitted. To monitor cleavage of the optical probes by caspase-3, 10 μL volumes of phosphorylated and control (non-phosphorylated) samples of the optical probe were placed in individual wells of a 96-well multiwell plate. Caspase-3 cleavage reactions were carried out in these samples after dilution to 100 μL in a buffer consisting of 100 mM HEPES, pH 7.5, 5 mM DTT, 0.5 mM EDTA, 20% glycerol, 0.01% Brij-35, and 50-100 ng caspase-3 (Upstate Biotechnology), and incubated at room temperature. Emission readings were taken at 5 minute intervals during the course of the caspase-3 incubation using a Cytofluor plate reader as described in Example 1."}, "chymotrypsin": {"target": "chymotrypsin (Bos taurus, UniProt P00766)", "experiment": "Chymotrypsin cleavage of optical probe with or without protein kinase A phosphorylation", "details": "for 460/530 emission ratio, Non-phosphorylated Optical probe / 460/530 emission ratio, Phosphorylated Optical probe: 0.8 nM chymotrypsin", "description": "ID. NO: 12, below, (the P′1, position with respect to the protease cleavage site of chymotrypsin).\nThe peptide ([…], SEQ. ID. NO: 12) was labeled with fluorescein isothiocyanate at the N-termninus and 7-hydroxycoumarin-3-carboxamide at the C-terminus as described above. To determine the relative proteolytic activity of the phosphorylated and non-phosphorylated optical probes, samples of both were prepared. […] Mock kinase reactions with no ATP were used to create non-phosphorylated, control samples. In both cases, the samples were diluted 10 fold with buffer containing 50 mM HEPES, pH 7.5, 10 mM CaCl2 and 0.01% Brij-35, and incubated with 0.8 nM chymotrypsin."}, "protein kinase C": {"tested_on": "protein kinase C", "experiment": "Proteolytic susceptibility of optical probe after protein kinase C phosphorylation", "details": "chymotrypsin", "source_text": "To measure protein kinase C activity using the optical probes of the present invention, a peptide ([…], SEQ. ID. NO: 12) was designed in which phosphorylation by protein kinase C occurred at the P′1 position (underlined in SEQ. ID. NO: 12) with respect to the scissile bond cleaved by chymotrypsin. This enabled an optimal protein kinase C recognition motif to placed within the optical probe sequence, and to create a site of phosphorylation that modulated the proteolytic sensitivity of the substrate towards chymotrypsin."}, "[1]": {"tested_on": "protein tyrosine phosphatase-B (PTP-B)", "experiment": "Dephosphorylation of phosphorylated optical probes by PTP-B", "details": "for Fluorescence emission ratio of peptide after protease treatment: phosphorylated probe 500 nM, 20 minutes at 30 C", "description": "as §1\nIn this experiment, the relative rates of dephosphorylation of the phosphorylated Src-2-specific substrate (SEQ. ID. NO: 29) and an abl-specific (SEQ. I.D. No. 4) substrate optical probes by the protein tyrosine phosphatase PTP-B were compared."}, "Src kinase": {"target": "T2, Src kinase (Homo sapiens, UniProt P12931)", "T2 construct": "purchased Upstate Biotechnology", "experiment": "Src kinase phosphorylation of optical probes", "details": "fluorescence after protease incubation; read-out: apparent Km with respect to the Src kinase"}},
  "note": "Where no end group is shown, it is not given here. The star is where a group is joined. FITC = O=C1OC2(c3ccc(O)cc3Oc3cc(O)ccc32)c2ccc(NC(=S)*)cc21",
  "data": [
    {"compound": "O=S(=O)(NCCNC/C=C/c1ccc(Br)cc1)c1cccc2cnccc12", "note": "[H-89]", "values": [
      {"measurement": "inhibition of protein kinase A activity", "setting": "protein kinase A", "result": "almost complete inhibition"}
    ]},
    {"compound": "[O]=[V]([OH])([OH])[OH]", "note": "[Ortho-vanadate, orthovanadate]", "values": [
      {"measurement": "IC50", "setting": "PTP-B", "result": 420, "unit": "nM"}
    ]},
    {"compound": "RVDEPFSPGEK (Optical probe with p-Ser in P′(sub 1)) [SEQ. ID. NO: 24, ERK kinase specific optical probe cleaved by caspase-3]", "values": [
      {"measurement": "maximal difference in emission ratio of phosphorylated and non-phosphorylated optical probes", "setting": "caspase-3", "result": "over a three fold difference"}
    ]},
    {"compound": "RRRKFSLRRKA ({FITC}-RRRKFSLRRKA; not fully specified (residue 6, C-terminus)) [SEQ. ID. NO: 12, peptide labeled with fluorescein isothiocyanate at N-terminus and 7-hydroxycoumarin-3-carboxamide at C-terminus; protein kinase A and C probe]", "values": [
      {"measurement": "460/530 emission ratio, Non-phosphorylated Optical probe", "setting": "chymotrypsin; time of cleavage 0 minutes", "result": 0.34},
      {"measurement": "460/530 emission ratio, Phosphorylated Optical probe", "setting": "chymotrypsin; time of cleavage 0 minutes", "result": 0.33},
      {"measurement": "460/530 emission ratio, Non-phosphorylated Optical probe", "setting": "chymotrypsin; time of cleavage 10 minutes", "result": 3.15},
      {"measurement": "460/530 emission ratio, Phosphorylated Optical probe", "setting": "chymotrypsin; time of cleavage 10 minutes", "result": 0.54},
      {"measurement": "460/530 emission ratio, Non-phosphorylated Optical probe", "setting": "chymotrypsin; time of cleavage 20 minutes", "result": 6.71},
      {"measurement": "460/530 emission ratio, Phosphorylated Optical probe", "setting": "chymotrypsin; time of cleavage 20 minutes", "result": 0.78},
      {"measurement": "460/530 emission ratio, Phosphorylated Optical probe", "setting": "chymotrypsin; time of cleavage 30 minutes", "result": 1.02},
      {"measurement": "460/530 emission ratio, Phosphorylated Optical probe", "setting": "chymotrypsin; time of cleavage 40 minutes", "result": 1.27},
      {"measurement": "460/530 emission ratio, Non-phosphorylated Optical probe", "setting": "chymotrypsin; time of cleavage 50 minutes", "result": 13.34},
      {"measurement": "460/530 emission ratio, Phosphorylated Optical probe", "setting": "chymotrypsin; time of cleavage 50 minutes", "result": 1.53},
      {"measurement": "460/530 emission ratio, Phosphorylated Optical probe", "setting": "chymotrypsin; time of cleavage 60 minutes", "result": 1.78},
      {"measurement": "Fold difference in ratios", "setting": "chymotrypsin; time of cleavage 0 minutes", "result": 1.0},
      {"measurement": "Fold difference in ratios", "setting": "chymotrypsin; time of cleavage 10 minutes", "result": 5.8},
      {"measurement": "Fold difference in ratios", "setting": "chymotrypsin; time of cleavage 20 minutes", "result": 8.6},
      {"measurement": "Fold difference in ratios", "setting": "chymotrypsin; time of cleavage 30 minutes", "result": 9.7},
      {"measurement": "Fold difference in ratios", "setting": "chymotrypsin; time of cleavage 40 minutes", "result": 9.5},
      {"measurement": "Fold difference in ratios", "setting": "chymotrypsin; time of cleavage 50 minutes", "result": 8.7},
      {"measurement": "Fold difference in ratios", "setting": "chymotrypsin; time of cleavage 60 minutes", "result": 7.9},
      {"measurement": "effect of phosphorylation by protein kinase C on proteolytic susceptibility of the substrate", "setting": "protein kinase C", "result": "significantly modulated"}
    ]},
    {"compound": "GEEEIYGVIEK [Src-2, fluorescently labeled optical probe for Src kinase; phosphorylated form is the PTP-B substrate]", "values": [
      {"measurement": "Fluorescence emission ratio of peptide after protease treatment", "setting": "[1]; Log concentration of PTP-B −7.7", "result": 17.7},
      {"measurement": "Fluorescence emission ratio of peptide after protease treatment", "setting": "[1]; Log concentration of PTP-B −8.7", "result": 17.6},
      {"measurement": "Fluorescence emission ratio of peptide after protease treatment", "setting": "[1]; Log concentration of PTP-B −9.7", "result": 15.8},
      {"measurement": "Fluorescence emission ratio of peptide after protease treatment", "setting": "[1]; Log concentration of PTP-B −10.7", "result": 5.40},
      {"measurement": "Fluorescence emission ratio of peptide after protease treatment", "setting": "[1]; Log concentration of PTP-B −11.7", "result": 1.99},
      {"measurement": "Fluorescence emission ratio of peptide after protease treatment", "setting": "[1]; Log concentration of PTP-B −12.7", "result": 1.75},
      {"measurement": "Fluorescence emission ratio of peptide after protease treatment", "setting": "[1]; Log concentration of PTP-B −13.7", "result": 1.62},
      {"measurement": "Fluorescence emission ratio of peptide after protease treatment", "setting": "[1]; Log concentration of PTP-B −14.7", "result": 1.60},
      {"measurement": "kcat", "setting": "[1]; phosphorylated probe, PTP-B", "result": 79, "unit": "s⁻¹"},
      {"measurement": "Km", "setting": "[1]; phosphorylated probe, PTP-B, Michaelis-Menten plot, read-out: apparent Km", "result": 1.3, "unit": "µM"},
      {"measurement": "Km", "setting": "Src kinase", "result": 19, "unit": "µM"}
    ]}
  ]
}
